Data set [1] deals with the molecule itself. Put plainly: crystal structure; hPF4 (7 mg/ml) with six-fold molar excess fondaparinux in PBS and 0.3 M NaCl; hanging drop, 16 °C, 2% PEG4000, 17% MPD, 0.1 M sodium acetate pH 5.6; 2.50 Å.
For another data set, the target named is T1, PF4 tetramer (human PF4) (human, UniProt P02776).
T1 construct: platelet factor 4 (PF4), human, wild type, same construct as m1, as the tetramer; Same protein as m1; also called hPF4 tetramer
Put plainly: crystal structure; KKO-Fab (5 mg/ml) mixed with hPF4, on ice overnight; hanging drop, 16 °C, 7% PEG6000, 0.1 M Tris-HCl pH 7.8; 4.10 Å. As to conditions: both partners purified.

The target of data set [2] is T2, wild-type human platelet factor 4 (hPF4) (human, UniProt P02776).
T2 construct: platelet factor 4 (PF4), human, wild type, expressed from plasmid pMT/BiP/V5-His; Probably the mature 70-residue PF4 behind the BiP signal of the vector; also called wtPF4; rPF4
Briefly: ELISA; Immulon 4 HBX plates coated overnight with PF4 or PF4 mutant at 5 ug/ml, blocked with 1% BSA in PBS; antibody in solution; A405. Particulars: both partners purified. Background: In an ELISA, binding on a coated surface is turned into a signal by an enzyme label.

A word on the stoichiometry N: it is a count of units in the complex or per binding partner.

B1: wild-type human platelet factor 4 (hPF4) (natural protein)
chain: EAEEDGDLQCLCVKTTSQVRPRHITSLEVIKAGPHCPTAQLIATLKNGRKICLDLQAPLYKKIIKKLLES
notes: platelet factor 4 (PF4), human, wild type, expressed from plasmid pMT/BiP/V5-His; Probably the mature 70-residue PF4 behind the BiP signal of the vector; also called wtPF4; rPF4
Consider B1, for which the “stoichiometry N” value in data set [1] amounted to 4.

B2: KKO-Fab (Fab fragment of the murine monoclonal HIT-like anti-PF4 antibody KKO) (Fab, V domains shown)
VH: VQLQQSGAELVKPGASVKLSCKASGYTFTNYFIYWVKQRPGQGLEWIGEINPRNGDTDFNEKFESRATLTVDKSSSTAYMQLSSLTSEDSAIYYCTRSPYGNNYGFTYWGQGTLVTVSA
VL: DIQMIQSQKFMSTSVGDRVTVTCKASQNVGTNVAWYQQKPGQSPNALIYSASYRYSGVPDRFTGSGSGTDFTLTITNVQSEDLADYFCQQYNSYPLTFGTGTKLDLK
notes: From murine IgG2b kappa KKO
As for B2, the binding result in the data set with PF4 tetramer (human PF4) is “binds”.

B3: KKO (murine anti-human PF4 IgG2bκ monoclonal antibody) (antibody, V domains shown)
VH: B2 VH
VL: B2 VL
notes: Fab part as the heavy chain of m3 (PDB 4R97, PDB 4R9Y); as the light chain of m3 (PDB 4R97, PDB 4R9Y); IgG2b kappa, whole IgG; also called HIT antibody KKO; HIT-like antibody KKO; source: purified from conditioned PFHM-II media (protein A-agarose); copies: 2 + 2
As to B3, in data set [2], the binding result is given as “binds”.

Values taken from PMC4580983 (Nature Communications, 2015).
